Source: PMC11117474

Experiments:
[1] = molecular target: RYBP (RING1A and YY1 binding protein) (UniProt Q8N488); assay: other fluorescence titration; ARM-PKP1 0-20 uM added to fixed RYBP 4.6 uM; 25 °C; 20 mM Tris pH 7.5, 5 mM TCEP, 150 mM NaCl; fluorescence at 330 nm; fit with ligand depletion
NUPR1 (Homo sapiens) = NUPR1 (Homo sapiens) (UniProt O60356); details: cited from earlier work
[2] = molecular target: armadillo-repeat domain of plakophilin 1 (ARM-PKP1); assay: ITC; RYBP (100 uM) in the syringe titrated into ARM-PKP1 (10 uM) in the cell; 25 °C; 20 mM Tris pH 7.5, 5 mM TCEP, 150 mM NaCl; single binding site model

UniProt O60356, sequence (O60356 whole entry, the tested form may be a part): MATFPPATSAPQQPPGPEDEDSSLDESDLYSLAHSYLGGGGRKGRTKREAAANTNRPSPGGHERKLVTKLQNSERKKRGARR

Molecule: armadillo-repeat domain of plakophilin 1 (ARM-PKP1) (domain or fragment)
- Kd [1]: 9 µM

Molecule: Plakophilin 1 ARM domain (from UniProt Q13835)
- Kd (NUPR1 (Homo sapiens)): 10 µM

B1: RYBP (RING1A and YY1 binding protein) (natural protein)
chain: MTMGDKKSPTRPKRQAKPAADEGFWDCSVCTFRNSAEAFKCSICDVRKGTSTRKPRINSQLVAQQVAQQYATPPPPKKEKKEKVEKQDKEKPEKDKEISPSVTKKNTNKKTKPKSDILKDPPSEANSIQSANATTKTSETNHTSRPRLKNVDRSTAQQLAVTVGNVTVIITDFKEKTRSSSTSSSTVTSSAGSEQQNQSSSGSESTDKGSSRSSTPKGDMSAVNDESF
- Kd [2]: 12 µM
- dH [2]: -11.9 kcal/mol
- stoichiometry N [2]: 1
